Source: patent US20180140679A1, “MODULATION OF AXL RECEPTOR ACTIVITY IN COMBINATION WITH CYTOREDUCTIVE THERAPY” (THE BOARD OF TRUSTEES OF THE LELAND STANFORD JUNIOR …, priority 2016, published 2018)

Tests used:
free, circulating Gas6 [1] = target: T1, free, circulating Gas6 (Mus musculus, UniProt Q61592); conditions: as previously determined using the same assay; cited from earlier work
T1 construct: from tissue; host or cells: mouse serum (nude nu/nu mice)
T1 sequence (Q61592 28-674): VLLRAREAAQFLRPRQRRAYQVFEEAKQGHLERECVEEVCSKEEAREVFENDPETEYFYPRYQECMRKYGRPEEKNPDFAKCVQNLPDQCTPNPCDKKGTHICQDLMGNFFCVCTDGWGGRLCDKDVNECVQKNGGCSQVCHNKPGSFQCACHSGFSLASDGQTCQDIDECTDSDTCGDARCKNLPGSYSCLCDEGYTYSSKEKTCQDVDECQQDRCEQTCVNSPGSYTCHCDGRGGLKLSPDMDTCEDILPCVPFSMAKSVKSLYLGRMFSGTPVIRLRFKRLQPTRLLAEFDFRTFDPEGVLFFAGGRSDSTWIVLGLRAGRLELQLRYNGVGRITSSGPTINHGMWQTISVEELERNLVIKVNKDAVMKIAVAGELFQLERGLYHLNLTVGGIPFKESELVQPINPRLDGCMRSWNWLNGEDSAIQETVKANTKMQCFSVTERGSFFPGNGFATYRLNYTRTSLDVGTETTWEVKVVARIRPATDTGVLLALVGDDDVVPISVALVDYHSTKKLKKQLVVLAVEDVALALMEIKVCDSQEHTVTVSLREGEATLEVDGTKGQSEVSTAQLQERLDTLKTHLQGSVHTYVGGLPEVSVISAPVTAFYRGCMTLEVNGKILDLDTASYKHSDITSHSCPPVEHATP

human Gas6 = target: T2, human Gas6 (Homo sapiens, UniProt Q14393); assay: Kinetic Exclusion Assay (KinExA), Gas6-Axl binding, human Gas6
T2 sequence (Q14393 31-678): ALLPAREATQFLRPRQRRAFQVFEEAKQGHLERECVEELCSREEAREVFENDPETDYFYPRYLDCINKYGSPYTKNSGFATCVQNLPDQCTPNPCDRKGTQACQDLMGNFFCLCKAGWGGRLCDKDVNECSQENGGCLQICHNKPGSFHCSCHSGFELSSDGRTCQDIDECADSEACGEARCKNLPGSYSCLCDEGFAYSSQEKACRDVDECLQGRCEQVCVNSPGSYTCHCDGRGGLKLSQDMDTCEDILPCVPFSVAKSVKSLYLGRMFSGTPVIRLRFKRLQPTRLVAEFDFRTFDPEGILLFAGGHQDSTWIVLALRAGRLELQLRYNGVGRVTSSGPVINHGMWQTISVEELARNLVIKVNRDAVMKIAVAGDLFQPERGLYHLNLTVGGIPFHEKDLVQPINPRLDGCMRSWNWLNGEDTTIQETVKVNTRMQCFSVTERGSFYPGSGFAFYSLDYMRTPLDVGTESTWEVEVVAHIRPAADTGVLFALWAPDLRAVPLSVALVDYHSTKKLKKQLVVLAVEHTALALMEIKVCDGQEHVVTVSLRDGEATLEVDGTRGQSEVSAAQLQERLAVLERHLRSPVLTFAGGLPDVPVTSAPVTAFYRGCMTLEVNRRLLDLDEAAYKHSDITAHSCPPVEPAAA
Method: Equilibrium binding and association rate constants for all Gas6-Axl interactions were measured on a KinExA3200 instrument (Sapidyne Instruments Inc. Boise, Id.) as previously described. For equilibrium binding studies, three independent titrations were completed for each Axl Ig1 or Axl Fc fusion unless otherwise noted. […] After the appropriate incubation time, reactions were flowed over MYD1 Fc coated beads and captured free Gas6 was probed using an anti-6×HIS Dylight 649 antibody (#200-343-382, Rockland Immunochemicals Inc., Pottstown, Pa.). Each sample was measured twice and data from the three independent equilibrium binding experiments were globally analyzed using n-curve analysis in the KinExA Pro 3.6.2 software (Sapidyne Instruments Inc. Boise, Id.) to obtain the Kd value. To analyze the association rate of the interactions, the direct inject method was used. For these experiments, 1 μM Axl was serially diluted 1:2.5, and equal volumes of each Axl sample and 500 nM Gas6 were briefly mixed and flowed over the capture beads. Free Gas6 was detected as described and the data was fit using the KinExA Pro 3.6.2 software to obtain the association rate (kon) of the interaction. The dissociation rate (koff) was calculated as the product of the Kd and the kon.

free, circulating Gas6 [2] = target: T1, free, circulating Gas6; assay: In vivo Gas6 serum ELISA (sequestration of endogenous Gas6); conditions: single 0.5 mg/kg dose via tail vein, up to 36 hours
Method: The amount of free, circulating Gas6 (i.e. not neutralized by the decoy receptor) was then quantified.
All doses were formulated in a 200 μl volume. Two mice were analyzed per condition and untreated mice were used to determine baseline Gas6 levels. At 2, 12, 24, and 36 h post-administration, retro-orbital bleeds were performed to obtain blood samples from which serum was isolated and free Gas6 was measured as previously described. The amount of free Gas6 in each sample was determined using a sandwich ELISA. In this assay, MYD1 Fc was used as a capture reagent in order to ensure the detection of free, unbound Gas6, and not Gas6/Axl Fc complexes. Detection of Gas6 was carried out using a biotinylated polyclonal anti-mouse Gas6 antibody (BAF986, R&D Systems, INC., Minneapolis, Minn.) and streptavidin HRP (#4800-30-06 Trevigen Inc., Gaithersburg, Md.).

[3] = system: Axl and FLT3 phosphorylation in AML cells; assay: Western blot of Axl and FLT3 phosphorylation in AML cells; format: cell-based, human
Excerpt: Cell lysates subjected to sodium dodecyl sulfate polyacrylamide gel electrophoresis followed by transfer to nitrocellulose membrane. The membranes were then probed with primary antibodies against total Axl (AF154, R&D Systems, INC., Minneapolis, Minn.), phospho-Axl (T702; #5724, CST, Danvers, Mass.), total Akt (#4691 CST, Danvers, Mass.), phosphor-Akt (#4060, CST, Danvers, Mass.), anti-MERTK (#ab52968, Abcam, Cambridge, Mass.), phospho-MERTK (#ab14921 Abcam, Cambridge, Mass.), anti-Tyro3 (#5585, CST, Danvers, Mass.), phospho-Tyro3 (#orb186274, Biorbyt LLC, Berkely, Calif.), Bcl-2 Family Antibody Sampler Kit (#9934, CST, Danvers, Mass.), anti-Chk2 (#sc-5278, Santa Cruz Biotech, INC., Santa Cruz, Calif.), anti-XRCC1 (#2735, CST, Danvers, Mass.), anti-γH2AX (Merck Millipore #05636, Darmstadt, Germany), anti-phospho-ATM (#ab81292, Abcam, Cambridge, Mass.), anti-ATM (#ab78, Abcam, Cambridge, Mass.), anti phospho-ATR (#2853, CST, Danvers, Mass.), anti-ATR (#2790, CST, Danvers, Mass.), anti-Phospho Chk1 (#12302, CST, Danvers, Mass.), anti-Phospho Chk2 (#2197, CST, Danvers, Mass.) and anti-RPA32 (#2208, CST, Danvers, Mass.) at 4° C. overnight. The blots were then washed and probed with HRP conjugated anti-goat (#sc-2020, Santa Cruz Biotech, INC., Santa Cruz, Calif.), or HRP conjugated anti-rabbit (#A16110, Thermo Fisher Scientific, Walthan, Mass.) as appropriate. The blots were developed with Bio-Rad Western C developing reagent (#170-5060 Bio-Rad, Hercules, Calif.) and visualized with Chemidoc digital imager (#1708280, Bio-Rad, Hercules, Calif.).

koff (human Gas6; calculated as the product of the Kd and the kon): 1.0 10^−5 s^−1
kon (human Gas6; direct inject method): 2.3 10^7 M^−1 s^−1
B1: MYD1 Fc: Fc fusion of the first generation Axl decoy receptor MYD1 (protein)
chain: APRGTQAEESPFVSNPGNITGARGLTGTLRCQLQVQGEPPEVHWLRDGQILELADSTQTQVPLGEDEQGDWIVASQLRITSLQLSDTGQYQCLVFLGHQTFVSQPGYVRLEGLPYFLEEPEDRTVAANTPFNLSCQAQGPPEPVDLLWLQDAVPLATAPGHGPQRSLHVPGLNKTSSFSCEAHNAKGVTTSRTATITVLPQQPRNLHLVSRQPTELEVAWTPGLSGIYPLTHCTLQAVLSNDGMGIQAGEPDPPEEPLTSQASVPPHQLRLGSLHPHTPYHIRVACTSSQGPSSWTHWLPVETPEGVPLGPPENISATRNGSQAFVHWQEPRAPLQGTLLGYRLAYQGQDTPEVLMDIGLRQEVTLELQGDGSVSNLTVCVAAYTAAGDGPWSLPVPLEAWRPGQAQPVHQLVKEPSTPAFS
modifications: left off: a dimerising Fc or GST
in vivo IC50 (free, circulating Gas6 [1]): 0.5 mg/kg
free, circulating Gas6 in serum (free, circulating Gas6 [2]): rapidly eliminated free Gas6 upon administration
Axl and FLT3 phosphorylation [3]: inhibited Axl and FLT3 phosphorylation
